We go through seven compounds from patent publication US20120277161A1, “INHIBITION OF MULTIPLE CELL ACTIVATION PATHWAYS” (INTER-K PTY LIMITED, priority 2009, published 2012).

For assay [1], the system named is cell adhesion mediated ERK activation in HT29 human colon cancer cells. Briefly: ERK cell adhesion assay (fibronectin), phospho-ERK1/2 ELISA. The format is cell-based. As for the experimental part: Experimental wells were coated with 100 μL of fibronectin (1-10 μg/mL, Sigma-Aldrich) or 100 μL of 1% BSA (negative control, Sigma-Aldrich). Plates were then incubated at 37° C. for 1 hour before being washed with 100 μL PBS. 100 μL of 1% BSA was then added to each well for 30 minutes to block non-specific binding (37°). HT29 human colon cancer cells were harvested using 0.5% trypsin-EDTA and 50,000 cells were plated into each empty well in 100 μL of serum free media (SFM; DMEM supplemented with 1% (v/v) L-glutamine and 2% (v/v) 1M HEPES solution). 100 μL of SFM with or without PP2 (final concentration 5 μM, specific c-Src inhibitor, Sigma-Aldrich), was then added to each well. Plates were centrifuged at 200 rpm for 5 minutes and then incubated at 37° C. for one hour. Phospho-ERK1/2 levels in the cell groups was evaluated by ELISA (Active Motif assay kit, Australian Biosearch) essentially as described in Example 7.1.
A study was undertaken to evaluate the effect of the PI3K inhibitor Wortmannin (0.25 μM final concentration) on cell adhesion mediated ERK activation in HT29 human colon cancer cells. Phospho-ERK1/2 levels were measured as an indicator of ERK activation substantially as described in Example 7.1. Increasing levels of phospho-ERK1/2 in HT29 cells correlated with increasing levels of fibronectin in the absence of serum stimulation of the HT29 cells.

Assay [2] has as its system ADDP human ovarian carcinoma cell line. Briefly: Cell proliferation (MTT) assay, ADDP cells. The format is cell-based. As for the experimental part:
(§1) 6.1 Cell Proliferation (MTT) Assay Single cell suspensions of viable trypsinised cells were seeded into 96-well tissue culture plates at a density of 2×10^3 cells per well in a volume of 100 μl of a suitable culture media supplemented with heat inactivated foetal calf serum (FCS) (e.g., Dulbecco's Modified Eagles Medium (DMEM), with 10% v/v FCS, 1% L-glutamine, 2% (v/v) Hepes, and antibiotics). A set of triplicate wells was prepared for each concentration of the peptide dendrimer being tested. Additional sample wells containing untreated cells or media alone were set up in each treatment plate and processed in parallel as reference controls. A zero-time plate of untreated cells and media-alone wells was simultaneously prepared and an MTT assay carried out on this plate at the time of addition of the kinase inhibitor (i.e., polypeptide or dendrimer) to treatment plates. All plates were cultured for 24 hours before addition of the test dendrimer.
To prepare the MTT solution 100 mg of MTT (3-(4,5-dimethylthiazolyl-2)-2,5-diphenyltetrazolium bromide) (Cat #. M-128, Sigma, St Louis Mo.), is mixed with 20 ml of PBS at pH 7.4. The resulting solution is filter sterilized (0.2 μM syringe filter) and stored at 4° C. protected from light until use. MTT substrate is cleaved in growing cells to yield a water insoluble salt. After solubilisation of the salt crystals, a coloured product is produced the measurement of which allows quantitation of the proliferative activity of the cultured cells.
Appropriate concentrations of the kinase inhibitor were prepared by dilution of freshly prepared sterile 1 mM stock solutions into cell culture media to give a final well volume of 200 μl containing 10% v/v FCS. The zero-plate was processed by addition of MTT at this time. Cell culture was continued for a further 24 or 48 hours before addition of 20 μl of MTT in PBS (5 mg/ml, 0.2 um filter sterilised). The MTT cell proliferation assay measures cell proliferation rate and, in instances where cell viability is compromised, the assay indicates a comparative reduction in cell viability. After a 3 hour incubation in the presence of MTT (5% CO2 in air at 37° C.), plates were centrifuged at 450 g for 5 minutes, supernatant was removed by gentle suction and precipitated tetrazolium salt resuspended into 150 μl DMSO:glycine (0.1M glycine, 0.1M NaCl pH 10.5) (6:1 v/v) solution. Plates were gently vortexed to complete solubilisation of crystalline material and absorbance was read at 550 nm using a microplate reader. Sample data were processed to determine the comparative growth of treated samples relative to untreated controls.

In a further assay the target is human Yes (Homo sapiens, UniProt P07947). Put plainly: Yes kinase activity assay. The assay is classed as biochemical. To be noted: peptide 50 μM. Here is the method:
In a final reaction volume of 25 μl, human Yes is incubated with the RSKAKNPLYR peptide (SEQ ID No: 6) in 8 mM MOPS buffer pH 7.0, 0.2 mM EDTA, 0.1 mg/ml poly(Glu,Tyr) 4:1, 10 mM Mg acetate and [γ-33P-ATP] (specific activity approx. 500 cpm/pmol). The reaction is initiated by the addition of the MgATP mix, incubated for 40 minutes at room temperature prior to being stopped and kinase activity assessed by scintillation counting again as per the protocol described for c-Src in Example 1.1.

A further assay addresses MEK1 (h) (Homo sapiens, UniProt Q02750). Put plainly: MEK1 kinase activity assay. To be noted: 50 μM. The assay is classed as biochemical. Here is the method: The reaction is initiated by the addition of the MgATP. After incubation for 40 minutes at room temperature, 5 μL of this incubation mix is used to initiate an ERK2 (m) assay.
For another assay, the target named is c-SRC (h) (Homo sapiens, UniProt P12931). Put plainly: c-Src kinase activity assay (cell-free, 33P-ATP). The format is biochemical. To be noted: peptide 50 μM, relative to control. As for the experimental part: In a final reaction volume of 25 μL, c-SRC (h) (5-10 mU) is incubated with 8 mM MOPS pH 7.0, 0.2 mM EDTA, 250 μM KVEKIGEGTYGVVYK (SEQ ID No. 19) (Cdc2 peptide), 10 mM MgAcetate and [γ-33P-ATP] (specific activity approx. 500 cpm/pmol, concentration as required). The reaction is initiated by the addition of the MgATP mix. After incubation for 40 minutes at room temperature, the reaction is stopped by the addition of 5 μL of a 3% phosphoric acid solution. 10 μL of the reaction is then spotted onto a P30 filtermat and washed three times for 5 minutes in 75 mM phosphoric acid and once in methanol prior to drying and scintillation counting.

A further assay addresses human Lyn (Homo sapiens, UniProt P07948). Briefly: Lyn kinase activity assay. The assay is classed as biochemical. To be noted: peptide 50 μM. Here is the method: In a final reaction volume of 25 μl, human Lyn is incubated with the RSKAKNPLYR peptide (SEQ ID No: 6) in 50 mM Tris buffer pH 7.5, 0.1 mM EGTA, 0.1 mM Na3VO4, 1% mercaptoethanol, 0.1 mg/ml poly(Glu,Tyr) 4:1, 10 mM Mg acetate and [γ-33P-ATP] (specific activity approx. 500 cpm/pmol). The reaction was initiated by the addition of the MgATP mix, incubated for 40 minutes at room temperature prior to being stopped and kinase activity assessed by scintillation counting as per the protocol described for c-Src described in Example 1.1.

For assay [3], the system named is A2780 ovarian cancer cell line. Briefly: Cell proliferation (MTT) assay, A2780 cells. The assay is classed as cell-based, human. To be noted: drug alone; FIG. 6. As for the experimental part: as §1, with “A zero-time plate of untreated cells and media-alone wells was simultaneously prepared and an MTT assay carried out on this plate at the time of addition of the kinase inhibitor (i.e., polypeptide or dendrimer) to treatment plates. All plates were cultured for 24 hours before addition of the test dendrimer.” left out
To prepare the MTT solution 100 mg of MTT (3-(4,5-dimethylthiazolyl-2)-2,5-diphenyltetrazolium bromide) (Cat #. M-128, Sigma, St Louis Mo.), is mixed with 20 ml of PBS at pH 7.4. […] After solubilisation of the salt crystals, a coloured product is produced the measurement of which allows quantitation of the proliferative activity of the cultured cells.
Appropriate concentrations of the kinase inhibitor were prepared by dilution of freshly prepared sterile 1 mM stock solutions into cell culture media to give a final well volume of 200 μl containing 10% v/v FCS. […] Plates were gently vortexed to complete solubilisation of crystalline material and absorbance was read at 550 nm using a microplate reader. […]

Sequence of human Lyn (P07948 whole entry): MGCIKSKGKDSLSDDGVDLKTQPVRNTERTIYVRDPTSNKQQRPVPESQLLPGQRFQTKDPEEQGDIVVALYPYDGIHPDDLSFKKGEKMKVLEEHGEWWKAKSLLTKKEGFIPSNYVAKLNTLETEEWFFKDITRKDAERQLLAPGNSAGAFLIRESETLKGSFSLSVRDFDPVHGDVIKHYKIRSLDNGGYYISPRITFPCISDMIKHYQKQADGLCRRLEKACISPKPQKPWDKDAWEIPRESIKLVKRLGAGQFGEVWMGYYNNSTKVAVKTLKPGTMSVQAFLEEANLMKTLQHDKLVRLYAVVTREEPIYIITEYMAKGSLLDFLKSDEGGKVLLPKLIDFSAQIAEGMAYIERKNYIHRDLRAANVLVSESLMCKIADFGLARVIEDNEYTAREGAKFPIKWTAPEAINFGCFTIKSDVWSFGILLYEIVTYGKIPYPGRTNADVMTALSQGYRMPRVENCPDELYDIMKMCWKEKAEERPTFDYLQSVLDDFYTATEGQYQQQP
Sequence of human Yes (P07947 whole entry): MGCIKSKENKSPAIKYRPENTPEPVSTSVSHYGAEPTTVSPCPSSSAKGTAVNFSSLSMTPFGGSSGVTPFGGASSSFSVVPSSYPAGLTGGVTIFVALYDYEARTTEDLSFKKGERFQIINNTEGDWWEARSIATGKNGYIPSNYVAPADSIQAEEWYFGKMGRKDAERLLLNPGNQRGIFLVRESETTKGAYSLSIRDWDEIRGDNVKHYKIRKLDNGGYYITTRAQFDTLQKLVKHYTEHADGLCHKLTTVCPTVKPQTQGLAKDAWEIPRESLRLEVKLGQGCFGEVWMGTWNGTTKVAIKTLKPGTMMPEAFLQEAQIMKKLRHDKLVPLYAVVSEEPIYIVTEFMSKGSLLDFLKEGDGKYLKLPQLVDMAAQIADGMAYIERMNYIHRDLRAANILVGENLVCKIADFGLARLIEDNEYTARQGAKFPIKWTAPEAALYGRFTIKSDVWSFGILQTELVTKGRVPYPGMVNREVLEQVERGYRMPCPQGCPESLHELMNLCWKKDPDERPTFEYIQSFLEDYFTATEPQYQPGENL

For `CC(C)(C)n1nc(-c2ccc(Cl)cc2)c2c(N)ncnc21` [PP2], the “phospho-ERK levels, HT29 cells on fibronectin” value in assay [1] (5 μM, no serum stimulation, results not shown) is “markedly reduced”.

Consider RSKAKNPLYR [Peptide 1], for which, in assay [2] (20 μM peptide, 72 hour culture, data not shown), the “effect in combination with cisplatin, ADDP cells” value is “synergistic effect”. For the same compound, the “inhibition of Yes activity” value in the assay with human Yes was “only relatively low level inhibition”. Moreover, the “inhibition of MEK1” value with MEK1 (h) was “negligible inhibition”. Also, the “% Inhibition of control, c-Src tyrosine kinase activity” value (“% Inhibition of control” for short) with c-SRC (h) was “approx. 57%”. In addition, the “inhibition of Lyn activity” value with human Lyn was “only relatively low level inhibition”.

`N.N.[Cl][Pt][Cl]` [cisplatin, cis-diamminedichloroplatinum (II), reference compound]: the “inhibition of growth of ADDP cell line” value in assay [2] (drug alone, FIG. 6) is given as “substantially less inhibition of growth”. In addition, in assay [3], the “inhibition of growth of A2780 cell line” value is recorded as “highly susceptible”.

As for `COC[C@H]1OC(=O)c2coc3c2[C@@]1(C)C1=C(C3=O)[C@@H]2CCC(=O)[C@@]2(C)C[C@H]1OC(C)=O` [Wortmannin], the “reduction of cell adhesion mediated ERK activation” value in assay [1] (0.25 μM, HT29 cells) was “about 55%”.

For RSKAK [Peptide 6], the “% Inhibition of control” value in the assay with c-SRC (h) was “negligible or no c-Src inhibitory activity”.

In the case of NPLYR [Peptide 8], the “% Inhibition of control” value with c-SRC (h) was “negligible or no c-Src inhibitory activity”.

In the case of WQTGT [Peptide 7], the “% Inhibition of control” value in the assay with c-SRC (h) is “No inhibitory activity”.
